Data taken from paper PMC4825978, “A Hox Transcription Factor Collective Binds a Highly Conserved Distal-less cis-Regulatory Module to Generate Robust Transcriptional Outcomes”.

What was measured:
[1] = molecular target: Abd-A;Exd51A (ExdN51A);Hth (in heterodimer) (Drosophila melanogaster?;Drosophila …, UniProt P29555;P40427;O46339 261-590;1-376;1-487, |N291A|); assay: EMSA; Abd-A 37.5-300 nM with 200 nM ExdN51A/Hth; significant cooperative complex; Native PAGE EMSA, probe 0.36 uM, triplicate; buffer, salt, pH and temperature not given (as previously described). Further probes (single/paired sites, Hox point mutants; percent bound) only in S4 and S5 Figs, not in the material, number of rows unknown; conditions: protein: recombinant;recombinant;recombinant; tags: His;;His; copies: 1;1;1
Abd-A;Exd51A (ExdN51A);Hth (in heterodimer), sequence (P29555 261-590, stated change not applied, one chain of several): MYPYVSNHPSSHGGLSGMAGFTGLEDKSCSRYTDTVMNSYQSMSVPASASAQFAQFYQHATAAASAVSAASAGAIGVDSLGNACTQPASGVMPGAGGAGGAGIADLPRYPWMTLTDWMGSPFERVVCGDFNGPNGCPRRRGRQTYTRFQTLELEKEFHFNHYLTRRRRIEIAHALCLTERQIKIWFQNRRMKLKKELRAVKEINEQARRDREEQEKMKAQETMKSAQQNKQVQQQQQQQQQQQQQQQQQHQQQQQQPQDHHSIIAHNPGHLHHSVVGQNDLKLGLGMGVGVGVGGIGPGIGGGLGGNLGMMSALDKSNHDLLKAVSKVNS

[2] = molecular target: Abd-A;Exd (in Exd/Hth heterodimer);Hth (in heterodimer) (Drosophila melanogaster?;Drosophila …, UniProt P29555;P40427;O46339 261-590;1-376;1-487, ||); assay: EMSA; Abd-A 37.5-300 nM with 75 nM Exd/Hth; highly cooperative, third slower complex; Native PAGE EMSA, probe 0.36 uM, triplicate; buffer, salt, pH and temperature not given (as previously described). Further probes (single/paired sites, Hox point mutants; percent bound) only in S4 and S5 Figs, not in the material, number of rows unknown; conditions: protein: recombinant;recombinant;recombinant; tags: His;untagged;His; copies: 1;1;1
Abd-A;Exd (in Exd/Hth heterodimer);Hth (in heterodimer), sequence (P29555 261-590, one chain of several): as the sequence (P29555 261-590, stated change not applied, one chain of several) above

[3] = molecular target: T1, Exd51A (ExdN51A);Hth (in heterodimer) (Drosophila melanogaster?;Drosophila …, UniProt P40427;O46339 1-376;1-487, N291A|); assay: EMSA; 200 nM heterodimer, no Abd-A; no significant binding; Native PAGE EMSA, probe 0.36 uM, triplicate; buffer, salt, pH and temperature not given (as previously described). Further probes (single/paired sites, Hox point mutants; percent bound) only in S4 and S5 Figs, not in the material, number of rows unknown; conditions: protein: recombinant;recombinant; tags: ;His; copies: 1;1
T1 sequence 1: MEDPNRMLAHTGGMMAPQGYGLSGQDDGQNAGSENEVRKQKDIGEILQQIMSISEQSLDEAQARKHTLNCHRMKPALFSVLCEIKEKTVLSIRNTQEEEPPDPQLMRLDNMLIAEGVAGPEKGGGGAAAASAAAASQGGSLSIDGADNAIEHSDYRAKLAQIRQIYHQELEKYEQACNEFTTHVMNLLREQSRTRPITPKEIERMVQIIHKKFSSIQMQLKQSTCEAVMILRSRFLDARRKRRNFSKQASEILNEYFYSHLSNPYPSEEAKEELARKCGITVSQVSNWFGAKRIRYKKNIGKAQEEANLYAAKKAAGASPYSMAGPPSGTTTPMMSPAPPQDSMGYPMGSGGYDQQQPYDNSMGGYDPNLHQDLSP
T1 sequence 2: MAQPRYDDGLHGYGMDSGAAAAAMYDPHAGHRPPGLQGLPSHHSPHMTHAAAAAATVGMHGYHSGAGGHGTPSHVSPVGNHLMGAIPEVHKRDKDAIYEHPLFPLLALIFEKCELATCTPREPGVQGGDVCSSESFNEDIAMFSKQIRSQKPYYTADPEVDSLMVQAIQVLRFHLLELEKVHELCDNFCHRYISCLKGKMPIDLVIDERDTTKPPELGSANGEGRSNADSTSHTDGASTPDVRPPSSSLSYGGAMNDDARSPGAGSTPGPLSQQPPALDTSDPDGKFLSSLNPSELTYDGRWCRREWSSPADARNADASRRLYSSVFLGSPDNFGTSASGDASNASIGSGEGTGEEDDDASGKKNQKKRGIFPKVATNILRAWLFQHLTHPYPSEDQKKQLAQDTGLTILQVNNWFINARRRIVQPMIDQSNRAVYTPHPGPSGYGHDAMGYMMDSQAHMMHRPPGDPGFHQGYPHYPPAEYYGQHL

B1: DCRE wild-type full-length probe (dsDNA)
DNA 1: GGAATTTATGTCCGACAATATTTGGGAAATTAAATCATTCCCGCGGACAGTTTTATAGTGCGGGCGTGGC
DNA 2: GCCACGCCCGCACTATAAAACTGTCCGCGGGAATGATTTAATTTCCCAAATATTGTCGGACATAAATTCC
[1]
  binding result: binds
[2]
  binding result: binds
[3]
  binding result: no binding
